The target in the assay is early pandemic (Wuhan) SARS-CoV-2 RBD (SARS-CoV-2, UniProt P0DTC2). Put plainly: SPR. To be noted: both partners purified.

B1: EY6A mAb (IgG) (antibody, V domains shown)
VH: EVQLVESGGGVVQPGRSLRLSCAASAFTFSSYDMHWVRQAPGKGLEWVAVISYDGSNKYYADSVKGRFTISRDNSKNTLYLQMNSLRAEDTAVYYCAKDGGKLWVYYFDYWGQGTLVTVSS
VL: not shown
Take B1: binding was put at a Kd of 7.8 nM.

The values above are taken from doi:10.1101/2021.12.03.471045 (bioRxiv, 2021).
